Experimental data: article PMC3168947 (Molecular cell, 2011)
Changes are numbered by the printed parent chain. Names and notes keep the numbering of the source. Values joined by “and” are separate entries in the source; they are usually repeats but may differ in a detail not shown here. Identical values can stand only once. Like-named read-outs stand apart in the source and are kept apart here. No end group written: not given here.

T1: ClpA6 (hexameric ClpA unfoldase, stabilised by ATPγS) (E. coli, UniProt P0ABH9 1-758)
T1 sequence (looked up): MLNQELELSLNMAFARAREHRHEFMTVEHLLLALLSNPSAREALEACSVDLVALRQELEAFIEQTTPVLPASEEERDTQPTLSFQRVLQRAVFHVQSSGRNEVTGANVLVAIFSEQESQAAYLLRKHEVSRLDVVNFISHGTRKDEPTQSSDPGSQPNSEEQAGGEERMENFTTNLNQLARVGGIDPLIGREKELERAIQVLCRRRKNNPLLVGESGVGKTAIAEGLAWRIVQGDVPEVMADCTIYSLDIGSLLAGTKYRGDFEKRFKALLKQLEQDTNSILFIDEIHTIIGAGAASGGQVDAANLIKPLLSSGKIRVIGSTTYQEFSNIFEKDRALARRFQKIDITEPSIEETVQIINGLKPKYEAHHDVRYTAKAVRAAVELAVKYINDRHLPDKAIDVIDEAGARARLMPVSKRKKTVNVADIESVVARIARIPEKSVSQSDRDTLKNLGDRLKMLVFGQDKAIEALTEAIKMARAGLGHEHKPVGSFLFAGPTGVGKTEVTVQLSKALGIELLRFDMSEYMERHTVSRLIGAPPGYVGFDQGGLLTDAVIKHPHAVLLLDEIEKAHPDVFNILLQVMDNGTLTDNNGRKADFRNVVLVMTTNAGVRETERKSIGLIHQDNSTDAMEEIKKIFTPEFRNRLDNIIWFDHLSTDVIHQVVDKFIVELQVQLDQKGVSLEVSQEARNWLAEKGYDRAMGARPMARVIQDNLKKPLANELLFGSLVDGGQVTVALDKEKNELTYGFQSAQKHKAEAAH

T2: ClpS^core (E. coli ClpS residues 26-106) (E. coli, UniProt P0A8Q6 26-106)
T2 sequence (looked up): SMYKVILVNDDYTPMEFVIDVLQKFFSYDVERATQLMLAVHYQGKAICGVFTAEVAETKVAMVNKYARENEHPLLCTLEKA

T3: ClpS adaptor (intact, wild type) (E. coli, UniProt P0A8Q6 1-106)
T3 sequence (looked up): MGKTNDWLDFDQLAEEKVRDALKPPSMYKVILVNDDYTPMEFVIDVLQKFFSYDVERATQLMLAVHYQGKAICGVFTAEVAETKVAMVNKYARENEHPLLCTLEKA

T4: L22 ClpS with ClpA6 (E. coli, UniProt P0ABH9 1-758; P0A8Q6 22-106)
T4 sequence (looked up) 1: T1 sequence (looked up)
T4 sequence (looked up) 2: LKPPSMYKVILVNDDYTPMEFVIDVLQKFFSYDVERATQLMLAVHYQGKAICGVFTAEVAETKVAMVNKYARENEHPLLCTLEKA

T5: ClpS-ClpA6 complex (E. coli, UniProt P0ABH9 1-758; P0A8Q6 1-106)
T5 sequence (looked up) 1: T1 sequence (looked up)
T5 sequence (looked up) 2: T3 sequence (looked up)

T6: D20 ClpS with ClpA6 (E. coli, UniProt P0ABH9 1-758; P0A8Q6 20-106)
T6 sequence (looked up) 1: T1 sequence (looked up)
T6 sequence (looked up) 2: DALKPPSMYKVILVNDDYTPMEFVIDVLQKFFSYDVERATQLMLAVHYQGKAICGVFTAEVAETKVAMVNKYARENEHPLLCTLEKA

B1: ClpS*^F (ClpS C73V; C101S; E96C labelled with fluorescein) (natural protein, E. coli, UniProt P0A8Q6 1-106, looked up)
chain: T3 sequence (looked up) with C73V, E96C, C101S
modifications: fluorescein maleimide on the single cysteine
B2: ClpS*^F bound to the N-end-rule peptide LLYVQRDSKEC (complex, E. coli)
chain: T3 sequence (looked up) with C73V, E96C, C101S
peptide: LLYVQRDSKEC
modifications: fluorescein maleimide on the single cysteine
B3: ^H66AClpS*^F (natural protein, E. coli, UniProt P0A8Q6 1-106, looked up)
chain: T3 sequence (looked up) with H66A, C73V, E96C, C101S
modifications: fluorescein maleimide on the single cysteine
B4: ^H66AClpS*^F bound to the N-end-rule peptide LLYVQRDSKEC (complex, E. coli)
chain: T3 sequence (looked up) with H66A, C73V, E96C, C101S
peptide: LLYVQRDSKEC
modifications: fluorescein maleimide on the single cysteine
B5: fluorescent N-end-rule peptide LLYVQRDSKEC-fl (peptide)
peptide: LLYVQRDSKEC(fluorescein maleimide)
B6: ClpA6 (hexameric ClpA unfoldase, stabilised by ATPγS) (enzyme)
chain: T1 sequence (looked up)
B7: *V18 ClpS with ClpA6 (complex, E. coli)
chain 1: T1 sequence (looked up)
chain 2: MVRDALKPPSMYKVILVNDDYTPMEFVIDVLQKFFSYDVERATQLMLAVHYQGKAICGVFTAEVAETKVAMVNKYARENEHPLLCTLEKA
B8: *A14 ClpS with ClpA6 (complex, E. coli)
chain 1: T1 sequence (looked up)
chain 2: MAEEKVRDALKPPSMYKVILVNDDYTPMEFVIDVLQKFFSYDVERATQLMLAVHYQGKAICGVFTAEVAETKVAMVNKYARENEHPLLCTLEKA
B9: *L13 ClpS with ClpA6 (complex, E. coli)
chain 1: T1 sequence (looked up)
chain 2: MLAEEKVRDALKPPSMYKVILVNDDYTPMEFVIDVLQKFFSYDVERATQLMLAVHYQGKAICGVFTAEVAETKVAMVNKYARENEHPLLCTLEKA

Assays:
ClpA6 = ClpA6 (Escherichia coli, UniProt P0A8Q6+P0ABH9, C101S/C73V/E96C); assay type: binding, E. coli; settings: for Kapp of ClpA6 for ClpS*^F in presence of peptide: fluorescence anisotropy, 200 nM ClpS*^F, 20 μM peptide, ATPγS, Fig. 3A; for ClpA6 bound ClpS*^F more tightly, fold: excess peptide, compared with […] peptide or absence of ligand
[1] = target: fluorescent N-end-rule peptide …-fl; experiment: fluorescence polarisation
[2] = target: T1, ClpA6 (hexameric ClpA unfoldase, …); experiment: fluorescence polarisation
[3] = target: T1, ClpA6 (hexameric ClpA unfoldase, …); experiment: fluorescence polarisation; remark: listed apart in the source
[4] = target: T1, ClpA6 (hexameric ClpA unfoldase, …); experiment: fluorescence polarisation; remark: listed apart in the source
[5] = target: T1, ClpA6 (hexameric ClpA unfoldase, …); experiment: fluorescence polarisation; remark: listed apart in the source
[6] = target: T2, ClpS^core (E. coli ClpS residues 26-106); experiment: fluorescence polarisation
[7] = target: T3, ClpS adaptor (intact, wild type); experiment: fluorescence polarisation
L22 ClpS with ClpA6 = target: T4, L22 ClpS with ClpA6; experiment: fluorescence polarisation
ClpS-ClpA6 complex = target: T5, ClpS-ClpA6 complex; experiment: fluorescence polarisation
D20 ClpS with ClpA6 = target: T6, D20 ClpS with ClpA6; experiment: fluorescence polarisation
[8] = target: ClpS*^F variant with NTE deletion (E. coli); experiment: fluorescence polarisation
[9] = target: B5; experiment: fluorescence polarisation
ClpAP = experiment: ClpAPS degradation of YLFVQELA-GFP; assay type: biochemical, E. coli; settings: for K2 (unimolecular engagement step, global fit): YLFVQELA-GFP degradation, Vmax = Etotal•kdeg/(1+K2), KM = K1•K2/(1+K2); for K2 (unimolecular engagement step, global fit) / steady-state degradation kinetics, in words / reduction in Vmax compared to ClpS, fold: Fig. 4B; for steady-state degradation kinetics, in words / reduction in Vmax compared to ClpS, fold: 100 nM ClpA6, 200 nM ClpP14; for steady-state degradation kinetics, in words: 600 nM ClpS or variants; for reduction in Vmax compared to ClpS, fold: 600 nM ClpS variant

Sequence of ClpA6 (P0A8Q6 whole entry C73V/E96C/C101S, one chain of several): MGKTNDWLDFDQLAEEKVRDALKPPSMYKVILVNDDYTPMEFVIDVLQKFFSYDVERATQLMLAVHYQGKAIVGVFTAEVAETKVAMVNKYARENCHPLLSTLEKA

Molecule: MLYVQRDSKEC
- Kapp of ClpA6 for ClpS*^F in presence of peptide (ClpA6): ~ 180 nM

Molecule: ClpS in complex with the ClpA N domain (from UniProt P0A8Q6 1-106)
- Kd [1]: 3000 nM

Molecule: Phe-Val [FV]
- ClpA6 bound ClpS*^F more tightly, fold (ClpA6): at least 9 fold
- Kapp of ClpA6 for ClpS*^F in presence of peptide (ClpA6): < 20 nM

Molecule: Trp-CONH2
- ClpA6 bound ClpS*^F more tightly, fold (ClpA6): at least 9 fold

Molecule: B1
- Kd [2]: ~180 nM
- Kd [3]: < 20 nM
- Kd [4]: 200 ± 6 nM

Molecule: B2
- Kd [5]: < 20 nM and 20 nM

Molecule: B3
- Kd [4]: 345 ± 3 nM

Molecule: B4
- Kd [5]: 178 ± 4 nM

Molecule: B5
- Kd [6]: ~3000 nM
- Kd [7]: ~3000 nM
- Kd (L22 ClpS with ClpA6): 290 nM
- Kd (ClpS-ClpA6 complex): 43 nM
- Kd (D20 ClpS with ClpA6): 130 nM

Molecule: B6
- fold reduction of affinity against ClpS*^F [8]: 10 fold

Molecule: B7
- Kd [9]: 83 nM

Molecule: B8
- K2 (unimolecular engagement step, global fit) (ClpAP): 9.2
- steady-state degradation kinetics, in words (ClpAP; YLFVQELA-GFP): substantial decrease in Vmax
- reduction in Vmax compared to ClpS, fold (ClpAP; YLFVQELA-GFP): 7.5 fold
- Kd [9]: 130 nM

Molecule: B9
- K2 (unimolecular engagement step, global fit) (ClpAP): 0.74
- steady-state degradation kinetics, in words (ClpAP; YLFVQELA-GFP): roughly similar steady-state degradation kinetics
- reduction in Vmax compared to ClpS, fold (ClpAP; YLFVQELA-GFP): 1.3 fold
- delivery of N-end-rule substrate for ClpAP degradation (ClpAP; YLFVQELA-GFP, ClpS variants, in words): mediated efficient substrate degradation
- Kd [9]: 100 nM
